The target of the assay is complement C5 (human) (UniProt P01031). Description: SPR. In general terms: SPR reads the build-up and loss of mass on a sensor chip optically.
complement C5 (human), sequence (P01031 19-673, chain 1 of 2): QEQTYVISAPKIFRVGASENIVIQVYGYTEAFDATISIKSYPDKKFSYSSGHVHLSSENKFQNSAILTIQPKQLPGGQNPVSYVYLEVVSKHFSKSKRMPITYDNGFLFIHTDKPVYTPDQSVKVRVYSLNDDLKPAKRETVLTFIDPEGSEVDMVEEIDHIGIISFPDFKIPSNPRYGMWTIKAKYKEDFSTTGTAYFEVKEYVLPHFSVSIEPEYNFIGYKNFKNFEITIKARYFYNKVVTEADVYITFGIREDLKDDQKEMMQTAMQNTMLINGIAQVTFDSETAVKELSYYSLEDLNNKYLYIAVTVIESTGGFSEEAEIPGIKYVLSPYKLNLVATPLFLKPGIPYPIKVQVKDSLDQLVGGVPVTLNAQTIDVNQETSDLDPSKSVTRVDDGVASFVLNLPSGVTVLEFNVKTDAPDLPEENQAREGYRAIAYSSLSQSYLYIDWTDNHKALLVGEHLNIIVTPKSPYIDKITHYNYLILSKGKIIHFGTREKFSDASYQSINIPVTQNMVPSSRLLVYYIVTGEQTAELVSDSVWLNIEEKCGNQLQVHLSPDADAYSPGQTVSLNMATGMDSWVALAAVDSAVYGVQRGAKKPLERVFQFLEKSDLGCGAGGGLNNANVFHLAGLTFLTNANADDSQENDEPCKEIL
complement C5 (human), sequence (P01031 678-1676, chain 2 of 2): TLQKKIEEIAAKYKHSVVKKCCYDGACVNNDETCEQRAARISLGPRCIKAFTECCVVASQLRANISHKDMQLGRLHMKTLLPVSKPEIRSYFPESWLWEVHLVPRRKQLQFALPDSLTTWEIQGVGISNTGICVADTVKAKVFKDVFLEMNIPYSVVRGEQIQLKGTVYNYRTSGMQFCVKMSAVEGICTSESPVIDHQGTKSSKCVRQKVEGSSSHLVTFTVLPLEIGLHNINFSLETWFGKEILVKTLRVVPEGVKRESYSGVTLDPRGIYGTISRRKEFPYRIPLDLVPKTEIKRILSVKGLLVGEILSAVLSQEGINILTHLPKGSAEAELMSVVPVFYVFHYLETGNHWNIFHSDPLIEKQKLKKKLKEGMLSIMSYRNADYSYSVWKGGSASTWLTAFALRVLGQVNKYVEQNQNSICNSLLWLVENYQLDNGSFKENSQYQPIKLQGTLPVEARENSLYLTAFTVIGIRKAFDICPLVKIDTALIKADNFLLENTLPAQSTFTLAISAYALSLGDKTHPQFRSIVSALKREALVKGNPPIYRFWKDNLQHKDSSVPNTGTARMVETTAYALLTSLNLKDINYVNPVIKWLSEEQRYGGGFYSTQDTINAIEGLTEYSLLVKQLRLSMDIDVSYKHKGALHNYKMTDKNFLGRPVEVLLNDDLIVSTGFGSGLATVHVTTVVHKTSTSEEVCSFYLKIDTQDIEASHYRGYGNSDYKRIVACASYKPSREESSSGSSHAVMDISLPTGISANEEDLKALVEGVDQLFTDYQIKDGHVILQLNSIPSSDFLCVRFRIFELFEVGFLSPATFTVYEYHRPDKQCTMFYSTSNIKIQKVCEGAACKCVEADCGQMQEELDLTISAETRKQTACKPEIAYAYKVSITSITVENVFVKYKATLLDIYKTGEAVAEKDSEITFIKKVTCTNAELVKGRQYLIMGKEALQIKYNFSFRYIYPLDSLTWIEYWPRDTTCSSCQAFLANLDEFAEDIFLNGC

For the substance “CirpT1 (Complement Inhibitor from Rhipicephalus pulchellus of the Terminal Pathway 1) (natural protein)”, the Kd was determined as 0.01 µM.

One may read the Kd as a measure of binding affinity in units of concentration. Lower therefore signals a tighter complex.

The record behind these values is doi:10.1101/647354.
